# According to patent publication US6602854B1, “Branched multimeric Apo A-I agonist compounds” (priority 1997, dated 2003):
# How the values were obtained:
# HepG2 hepatoma cells = assay: Cholesterol efflux; format: cell-based; settings: peptide:DMPC complexes 1:2 (w:w), 1-25 μg/ml, 24 hours; compared with native human ApoA-I
# Procedure: HepG2 hepatoma cells were plated into 6-well culture dishes and grown to confluence. Cells were labeled with ^3H-cholesterol by drying the cholesterol, then adding 1% bovine serum albumin (BSA) in phosphate buffered saline (PBS), sonicating the solution, and adding 0.2 ml labeling solution and 1.8 ml growth medium to the cells, so that each well contained 2 μCi of radioactivity. Cells were incubated for 24 h with the labeling medium.
# Peptide (or protein):DMPC complexes were prepared at a 1:2 peptide (or protein):DMPC ratio (w:w). […] Peptide or protein concentration in the final solution was 1 mg/ml.
# Labeling media was removed from the cells and the cells were washed with PBS prior to addition of complexes. 1.6 ml of growth medium was added to each well, followed by peptide (or protein): DMPC complex and sufficient PBS to bring the final volume to 2 ml per well. The final peptide or ApoA-I concentrations were 1, 2.5, 5, 7.5 and 25 μg/ml medium. After 24 hours of incubation at 37° C., the medium was removed, and the cells washed with 2 ml of 1% BSA/PBS, followed by 2 washes with 2 ml each of PBS. The amount of ^3H-cholesterol effluxed into the medium was determined by liquid scintillation counting.
# [1] = Circular dichroism: degree of helicity (free, SUVs, micelles, TFE); settings: for % Helicity Free: free in buffer
# In short: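 Far-UV CD (190–260 nm) at 37 °C on 5 μM peptide in 5 mM phosphate pH 7.4, either free, with EPC:Chol 20:1 SUVs (Ri 30 or 50), with lysophosphatidylcholine micelles (Ri 100), or in 90% TFE. Helicity derived from mean residue ellipticity at 222 nm or CONTIN fitting to reference spectra.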
# [2] = Procedure: […] (test sample). Delipidation was carried out by extracting the lipids with an equal volume of 2:1 (v/v) chloroform:methanol.
# The samples were loaded onto a reverse-phase C18 HPLC column and eluted with a linear gradient (25-58% over 33 min.) of acetonitrile (containing 0.1% TFA). Elution profiles were followed by absorbance (220 nm) and radioactivity.
sequence,measurement,setting,value
PVLDLFRELLNELLEALKQKLK [peptide 4],cholesterol efflux (in words),HepG2 hepatoma cells,more efficient at cholesterol efflux than ApoA-I
same,% helicity in the presence of SUVs,[1],97%
same,% helicity in the presence of TFE,[1],94%
same,% Helicity Bound (micelles),[1]; peptide concentration 0.15 μM,65%
same,% Helicity Free,[1]; peptide concentration 0.15 μM,42%
same,% Helicity Bound (micelles),[1]; peptide concentration 0.40 μM,68%
same,% Helicity Free,[1]; peptide concentration 0.40 μM,58%
same,% Helicity Free,[1]; peptide concentration 2.0 μM,63%
same,% Helicity Bound (micelles),[1]; peptide concentration 5.0 μM,95%
same,% Helicity Free,[1]; peptide concentration 5.0 μM,80%
same,% Helicity TFE,[1]; peptide concentration 50.0 μM,94%
same,He (%) free,"[1]; percent helicity of free, unbound peptide",80%
same,He (%) SUVs,[1]; percent helicity of peptide-SUV complexes,97%
same,He (%) TFE,[1]; percent helicity of peptide-TFE solution,94%
same,He (%) mics,[1]; percent helicity of peptide-micelle complexes,95%
same,stability of the α-helical structure with temperature,"[1]; temperature range of 5-45° C., data not shown",completely stable
same,peptide remaining intact,"[2]; 8 day incubation in human serum, 37° C.",more than 80%
same,"degraded peptide (3 min. peak), share of total radioactivity","[2]; human plasma, 8 days at 37° C.",approximately 15%
